# Measurements as given in paper PMC9236607, “TUBA1A tubulinopathy mutants disrupt neuron morphogenesis and override XMAP215/Stu2 regulation of microtubule dynamics” (eLife, 2022).
# B1: GST-TOG1/2 (the two TOG domains of Stu2 fused to a GST tag, Stu2 1-590) (domain or fragment, S. cerevisiae, UniProt P46675 1-590, looked up)
# chain: MSGEEEVDYTTLPLEERLTYKLWKARLEAYKELNQLFRNSVGDISRDDNIQIYWRDPTLFAQYITDSNVVAQEQAIVALNSLIDAFASSSLKNAHNITLISTWTPLLVEKGLTSSRATTKTQSMSCILSLCGLDTSITQSVELVIPFFEKKLPKLIAAAANCVYELMAAFGLTNVNVQTFLPELLKHVPQLAGHGDRNVRSQTMNLIVEIYKVTGNNSDLLEEILFKKLKPIQVKDLHKLFAKVGDEPSSSKMLFEWEKRELEKKRSQEEEARKRKSILSNDEGEYQIDKDGDTLMGMETDMPPSKQQSGVQIDTFSMLPEETILDKLPKDFQERITSSKWKDRVEALEEFWDSVLSQTKKLKSTSQNYSNLLGIYGHIIQKDANIQAVALAAQSVELICDKLKTPGFSKDYVSLVFTPLLDRTKEKKPSVIEAIRKALLTICKYYDPLASSGRNEDMLKDILEHMKHKTPQIRMECTQLFNASMKEEKDGYSTLQRYLKDEVVPIVIQIVNDTQPAIRTIGFESFAILIKIFGMNTFVKTLEHLDNLKRKKIEETVKTLPNFSIASGSTHSTIETNKQTGPMENKFLLK
# notes: Stu2 (yeast homologue of XMAP215), S. cerevisiae, residues 1-590 with the TOG1 and TOG2 domains, from pGEX-6P-1 Stu2 1-590 (Widlund et al., 2012); also called Stu2 TOG1/2 domains; Stu2 TOG1/TOG2 domains; source: E. coli BL21, purified (GSTrap HP, eluted with reduced glutathione); not shown: GST, N-terminal, kept
# Target: T1, purified budding yeast tubulin heterodimer, Tub1-WT (internal 6X-His) with Tub2 (S. cerevisiae, UniProt P09733 1-447; P02557 1-457)
# T1 construct: alpha-tubulin Tub1, S. cerevisiae, from pRS426-GAL-Tub1-internal 6X-His (Johnson et al., 2011); beta-tubulin Tub2, S. cerevisiae, untagged, from pRS424-GAL-Tub2 (Johnson et al., 2011); also called WT tubulin; WT yeast tubulin; source: S. cerevisiae JEL1 (protease deficient), overexpressed from GAL plasmids, purified (His60 Ni column, HiTrap Q)
# T1 sequence (P09733 whole entry, chain 1 of 2): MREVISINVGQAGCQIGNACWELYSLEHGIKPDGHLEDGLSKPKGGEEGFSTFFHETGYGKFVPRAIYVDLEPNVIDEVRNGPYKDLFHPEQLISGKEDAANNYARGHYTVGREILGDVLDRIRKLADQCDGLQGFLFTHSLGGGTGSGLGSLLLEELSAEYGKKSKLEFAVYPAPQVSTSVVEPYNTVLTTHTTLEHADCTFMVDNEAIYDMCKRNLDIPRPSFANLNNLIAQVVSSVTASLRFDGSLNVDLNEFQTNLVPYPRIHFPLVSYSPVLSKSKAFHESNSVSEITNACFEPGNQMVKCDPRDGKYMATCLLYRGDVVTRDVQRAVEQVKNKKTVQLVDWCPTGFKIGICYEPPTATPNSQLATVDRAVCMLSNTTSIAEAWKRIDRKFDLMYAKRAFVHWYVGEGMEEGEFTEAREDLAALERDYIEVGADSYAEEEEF
# T1 sequence (P02557 whole entry, chain 2 of 2): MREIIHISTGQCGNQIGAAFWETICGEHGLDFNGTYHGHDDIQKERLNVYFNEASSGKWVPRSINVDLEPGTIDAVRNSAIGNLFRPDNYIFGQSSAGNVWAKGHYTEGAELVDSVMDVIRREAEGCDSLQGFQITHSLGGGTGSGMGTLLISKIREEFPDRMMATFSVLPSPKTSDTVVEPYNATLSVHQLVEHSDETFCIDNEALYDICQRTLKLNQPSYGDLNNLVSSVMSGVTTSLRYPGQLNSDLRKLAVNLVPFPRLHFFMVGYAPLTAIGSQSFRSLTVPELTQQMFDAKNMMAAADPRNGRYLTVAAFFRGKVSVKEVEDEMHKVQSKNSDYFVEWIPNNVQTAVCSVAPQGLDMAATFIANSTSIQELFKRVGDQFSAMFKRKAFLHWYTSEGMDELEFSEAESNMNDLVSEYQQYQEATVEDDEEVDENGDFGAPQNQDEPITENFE
# Experiment: pull-down; 100 nM tubulin mixed with 9.8 nM to 5 µM GST-TOG1/2 at 4°C for 15 min, then glutathione magnetic agarose beads, 4°C, 1 hr; beads equilibrated in 125 mM Tris-HCl, 150 mM KCl, 1 mM DTT, 1 mM EDTA, pH 7.4; unbound tubulin left in the supernatant read by western blot for α- and β-tubulin
# Conditions: both partners purified
binder,measurement,value
B1,binding result,binds
